In general, stoichiometry N refers to the number of molecules, sites or subunits per partner or assembly.

In this experiment the target is Sushi domain of IL15Rα (aa1-66) fused to the CH2-CH3 of human IgG1 Fc. The experiment is described as follows: SEC.

Chain of Sushi domain of IL15Rα (aa1-66) fused to the CH2-CH3 of human IgG1 Fc (Q13261 1-66): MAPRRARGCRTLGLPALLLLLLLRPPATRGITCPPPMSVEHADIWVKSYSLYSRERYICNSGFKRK

Substance “Sushi domain of IL15Rα (aa1-66) fused to the CH2-CH3 of human IgG1 Fc (Fc fusion)” gave a stoichiometry N of 2.

For the origin of these results see paper PMC7954438.
